In patent publication US20240216513A1, “FATTY ACID-BIFUNCTIONAL DEGRADER CONJUGATES AND THEIR METHODS OF USE” (Novartis AG, priority 2021, published 2024):
Like-named read-outs stand apart in the source and are kept apart here.

Columns and labels:
[1] = In vivo pharmacokinetic study in mice (i.v. or s.c.), FAC and payload in blood; design: species or system mouse; settings: male
Experimental: (§1) Pharmacokinetic studies were conducted in male C57/B16 mice; male Sprague-Dawley rats; male Beagle dogs and male Cynomolgus monkeys. 3 animals per group were used for each study performed. All studies were performed in accordance with local animal welfare regulations.
(§2) […] Serial 30 µL blood samples were collected via venipuncture of the tail vein in mouse, and via the cannulated jugular vein in rats at defined timepoints to 216 hours (into EDTA coated tubes).
(§3) Each blood sample was precipitated with acetonitrile containing internal standard; samples were mixed and centrifuged (20 minutes 4000 RPM at 4° C.). Supernatant was transferred to a microwell plate and evaporated under nitrogen at 60° C. Residue was resuspended in acetonitrile/water (7:3 v/v); plate sealed and transferred to an ultrasonic bath for 3 minutes, prior to analysis. Quantification was performed by LC-MS/MS (SciexAP16500 Q-trap, Shimadzu Nexera X2) using a Phenomenex Polar RP analytical column (2.5 μm particle size; 50×2 mm). The mobile phase consisted of solvent A (0.1% formic acid in water) and solvent B (0.1% formic acid in acetonitrile). The fatty acid conjugate and API were detected using multiple reaction monitoring.
(§4) Data analysis and calculation of non-compartmental pharmacokinetic parameters was
(§5) performed using an in-house analysis. Following intravenous administration whole blood clearance was calculated by the dose administered divided by AUC0-inf. Volume of distribution at steady state was calculated as MRT*CL, where MRT is the mean residence time, calculated by AUMC0-inf/AUC0-inf. The half-life (t1/2) of the terminal elimination phase was calculated by 0.693/λ. For both intravenous and subcutaneous administration, the systemic exposures were determined by calculating the area under the blood concentration time curve (AUC) from time zero to the last observed quantifiable concentration (AUClast) by using the linear trapezoidal method and normalised to dose. Extrapolated AUC (AUC0-inf) is calculated by addition of AUClast and AUCtlast-inf; where AUCtlast-inf is calculated based on Clast/λ. The slope of the terminal elimination phase was estimated by linear regression of the terminal data points (minimum 3 points) from a natural log concentration versus time plot of the data. Bioavailability was calculated as the dose normalized ratio of […] AUCinf to intravenous AUCinf (100*[SC AUCinf/SC dose]/[IV AUCinf/IV dose]). Following subcutaneous administration Cmax is calculated as the average maximum observed peak concentration and Tmax is the time associated with the determined Cmax.
(§6) For PK experiments, non-tumor bearing mice or rats were treated once (10 mL/kg) with a compound either i.v. or s.c. Serial blood samplings from the tail vein (5-20 μl) were collected during the course of the experiment. For PK/PD experiments in tumor-bearing mice, compound was administered once (10 mL/kg) either i.v. or s.c. Animals were randomized into groups of n=3 and tissue samples were collected at several time points. At the times indicated, animals were anaesthetized by exposure to 2-3% v/v isoflurane in medical oxygen. They were sacrificed without recovering from anesthetic after blood sampling into commercially prepared EDTA coated tubes (Milian, cat #TOM-14C) in order to extract plasma. The tissues were excised, weighted and rapidly frozen in liquid nitrogen. Later, tumors were cryogenic dry pulverized with the CryoPrep™ system (model CP-02, Covaris). For efficacy experiments in ectopic tumor-bearing mice, animals were randomized into groups of n=6 for a mean tumor size of 100 mm^3 and compound was administered either i.v. q3w or s.c. q2w. When implanted in brain, animals were randomized into groups of n=4 for a mean bioluminescence of 1.0-2.0E+06 [p/s]/[ρW/cm^2] and compound was administered i.v. qw. Tumor response were reported with the measures of tumor volumes or bioluminescence from the treatment start. […]

BTK = target: T1, BTK (Homo sapiens, UniProt Q06187); assay: PK/PD in TMD8 tumor-bearing mice: BTK levels in tumor by Meso Scale Discovery; format: in vivo, mouse; settings: for Duration of BTK degradation in mouse ≥90%: I.v.
T1 construct: endogenous in cells; host or cells: TMD8 tumour xenografts in SCID/BEIGE mice
Experimental: (§7) All animal experiments were performed according to procedures covered by permit number BS-1974, BS-1975 and BS-2904 issued by the Kantonales Veterinäramt Basel-Stadt and strictly adhered to the Eidgenössisches Tierschutzgesetz and the Eidgenössische Tierschutzverordnung. Female Sprague Dawley rat were obtained from Charles Rivers (Germany), female Balb/c mice from Charles Rivers (Italy) and female SCID/BEIGE (C.B-Igh-1b/GbmsTac-Prkdcscid-Lystbg N7) mice from Taconic. All the animals were housed in a pathogen-controlled environment with access to food and water ad libitum and they were identified with transponders.
(§8) Subcutaneous TMD8 tumors were induced by injecting tumor cells expanded in vitro in the right flank of SCID/BEIGE mice. As soon as the injection was finished, antagonization (naloxone, flumazenil and atipamezole injected s.c.) was injected and mice are put on a warming pad for recovery and carefully checked during that time.
(§9) For PK experiments, non-tumor bearing mice or rats were treated once (10 mL/kg) with a compound either i.v. or s.c. Serial blood samplings from the tail vein (5-20 μl) were collected during the course of the experiment. For PK/PD experiments in tumor-bearing mice, compound was administered once (10 mL/kg) either i.v. or s.c. Animals were randomized into groups of n=3 and tissue samples were collected at several time points. At the times indicated, animals were anaesthetized by exposure to 2-3% v/v isoflurane in medical oxygen. They were sacrificed without recovering from anesthetic after blood sampling into commercially prepared EDTA coated tubes (Milian, cat #TOM-14C) in order to extract plasma. The tissues were excised, weighted and rapidly frozen in liquid nitrogen. Later, tumors were cryogenic dry pulverized with the CryoPrep™ system (model CP-02, Covaris). For efficacy experiments in ectopic tumor-bearing mice, animals were randomized into groups of n=6 for a mean tumor size of 100 mm^3 and compound was administered either i.v. q3w or s.c. q2w. When implanted in brain, animals were randomized into groups of n=4 for a mean bioluminescence of 1.0-2.0E+06 [p/s]/[ρW/cm^2] and compound was administered i.v. qw. Tumor response were reported with the measures of tumor volumes or bioluminescence from the treatment start. Concentrations of compound in blood and tissues were determined simultaneously by UPLC/MS-MS. BTK and IL-10 levels in tumor were determined by Meso Scale Discovery (MSD).

TMD8 tumors = assay: Efficacy in ectopic (subcutaneous) TMD8 tumor-bearing SCID/BEIGE mice, tumor volume; format: in vivo, mouse; settings: I.v.
Experimental: as §7, §8, §9

[2] = In vivo pharmacokinetic study in rats (i.v. or s.c.), FAC and payload in blood; design: species or system rat
Experimental: as §1, §2, §3, §4, §5, §6

BTK C481S = target: T2, BTK C481S (Homo sapiens, UniProt Q06187, C481S); assay: PD screen in TMD8 BTK C481S mutant tumor-bearing mice, BTK levels and compound concentrations in blood and tumor; format: in vivo, mouse; settings: 25 umol/kg
T2 construct: endogenous in cells; host or cells: TMD8 BTK C481S mutant tumour xenografts in mice
Summary of the method: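 Single compound injection in mice bearing TMD8 BTK C481S tumors, groups of 2, with blood and tumor sampled at day 0, 4, 7 and sometimes 10. Compound levels measured by UPLC/MS-MS and BTK levels by Meso Scale Discovery.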

[3] = BTK FAC plasma stability assay, PBS buffer arm; format: physicochemical
Summary of the method: (§10)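 Stability in PBS buffer or EDTA-treated plasma is followed over 24 h at 38 °C with shaking. Protein precipitation with acetonitrile (glyburide 0.2 µM as internal standard) stops each timepoint, and LC-MS/MS gives analyte-to-standard area ratios.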

[4] = BTK FAC plasma stability assay, mouse plasma; format: in vitro ADME
Summary of the method: as §10

[5] = BTK FAC plasma stability assay, rat plasma; format: in vitro ADME
Summary of the method: as §10

[6] = BTK FAC plasma stability assay, dog plasma; format: in vitro ADME
[7] = In vivo pharmacokinetic study in Beagle dogs (i.v. or s.c.), FAC and payload in blood; design: species or system dog; settings: analyte payload after FAC i.v. dose 1 umol/kg
Experimental: as §1
(§11) Between 1 and 10 µM/kg FAC was administered either intravenously or subcutaneously as a solution in 10 mM PBS with NaOH (dose volume 0.4 mL/kg in dog and monkey s.c. and 0.2 mL/kg i.v. in monkey). Serial 100 µL blood samples were collected via venipuncture of the cephalic vein at defined timepoints to 336 hours (into EDTA coated tubes).
as §3, §4, §5

[8] = In vivo pharmacokinetic study in Cynomolgus monkeys (i.v. or s.c.), FAC and payload in blood; design: species or system cynomolgus monkey; settings: analyte FAC, FAC i.v. dose 1 umol/kg
Experimental: as §1, §11, §3, §4, §5

[9] = C57/B16, mouse, in vivo, sc, 40 umol/kg

T1 sequence (Q06187 whole entry): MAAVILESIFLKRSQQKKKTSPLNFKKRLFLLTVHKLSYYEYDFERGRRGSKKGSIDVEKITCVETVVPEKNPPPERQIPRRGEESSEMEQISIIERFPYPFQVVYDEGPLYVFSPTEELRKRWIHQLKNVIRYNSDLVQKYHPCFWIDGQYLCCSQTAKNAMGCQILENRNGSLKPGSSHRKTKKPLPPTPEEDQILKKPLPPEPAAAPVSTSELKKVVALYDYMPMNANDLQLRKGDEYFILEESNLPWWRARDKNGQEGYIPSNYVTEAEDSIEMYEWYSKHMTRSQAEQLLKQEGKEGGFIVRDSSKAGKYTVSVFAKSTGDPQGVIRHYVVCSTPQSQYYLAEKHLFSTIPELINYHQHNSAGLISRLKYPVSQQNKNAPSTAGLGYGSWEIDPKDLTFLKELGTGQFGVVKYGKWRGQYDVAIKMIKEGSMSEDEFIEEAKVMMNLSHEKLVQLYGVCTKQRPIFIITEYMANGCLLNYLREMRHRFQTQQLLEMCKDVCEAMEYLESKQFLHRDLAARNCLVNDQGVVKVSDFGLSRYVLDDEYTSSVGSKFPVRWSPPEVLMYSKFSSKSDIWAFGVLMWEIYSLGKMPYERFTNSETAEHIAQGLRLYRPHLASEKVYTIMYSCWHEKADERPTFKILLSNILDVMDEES
T2 sequence (Q06187 whole entry C481S): as the sequence (Q06187 whole entry) above, with C481S counted along it

SMILES: Cc1c(NC(=O)c2ccc(C(C)(C)O)cc2F)cc(F)cc1-c1ncnc2[nH]c(-c3ccc(CN4CCC(OC5CCN(CCn6cccc(CN7CCC(=O)NC7=O)c6=O)CC5)CC4)cc3)cc12 [Compound N, N-(3-(6-(4-((4-((1-(2-(3-((2,4-Dioxotetrahydropyrimidin-1(2H)-yl)methyl)-2-oxopyridin-1(2H)-yl)ethyl)piperidin-4-yl)oxy)piperidin-1-yl)methyl)phenyl)-7H-pyrrolo[2,3-d]pyrimidin-4-yl)-5-fluoro-2-methylphenyl)-2-fluoro-4-(2-hydroxypropan-2-yl)benzamide]
- AUC ([1]; C57/B16, whole blood, iv, Mouse, unconj. BTK Degrader dosed itself (i.v. per row label), API dose 10 umol/kg, read-out: Payload (BTK Degrader) AUC): 9.3 µM·h
- Cmax ([1]; C57/B16, whole blood, iv, Mouse, unconj. BTK Degrader dosed itself (i.v. per row label), API dose 10 umol/kg, read-out: Payload (BTK Degrader) Cmax): 1.6 µM
- Duration of BTK degradation in mouse ≥90% (BTK; 20 mg/kg (unconjugated N)): 4 days
- Duration of BTK degradation in mouse ≥90% (days) (BTK; s.c., 10 mg/kg (unconjugated N)): 1(10 mg/kg) days
- Dosing to achieve sustained ~90% regression (TMD8 tumors): 20 mg/kg 2qw

SMILES: COc1ccc(C(=O)N2CCC3(CCN(CCc4ccc(-c5cc6c(-c7cc(F)cc(NC(=O)c8ccc(C(C)(C)OC(=O)CNC(=O)CCOCCOCCOCCOCCOCCOCCOCCOCCOCCOCCOCCOCCNC(=O)C(CCCCCCCCCCCCCCP(=O)(O)O)(CCCCCCCCCCCCCCP(=O)(O)O)C(=O)O)cc8F)c7C)ncnc6[nH]5)cc4)CC3)CC2)cc1N1CCC(=O)NC1=O [Example A28, 2-(4-((3-(6-(4-(2-(9-(3-(2,4-dioxotetrahydropyrimidin-1(2H)-yl)-4-methoxybenzoyl)-3,9-diazaspiro[5.5]undecan-3-yl)ethyl)phenyl)-7H-pyrrolo[2,3-d]pyrimidin-4-yl)-5-fluoro-2-methylphenyl)carbamoyl)-3-fluorophenyl)-2-methyl-4,7,47-trioxo-48,48-bis(14-phosphonotetradecyl)-3,10,13,16,19,22,25,28,31,34,37,40,43-tridecaoxa-6,46-diazanonatetracontan-49-oic acid]
- C0 ([2]; analyte FAC, FAC i.v. dose 10 umol/kg, read-out: FAC C0-uM rat): 57 µM
- Payload C0-uM Rat ([2]; analyte payload after FAC i.v. dose 10 umol/kg): 0.21 µM
- AUC ([2]; male, Sprague-Dawley, rat, in vivo, iv, analyte FAC, FAC i.v. dose 10 umol/kg, read-out: FAC AUC-uM.h rat): 704 µM·h
- Duration of BTK degradation in mouse ≥90% (BTK C481S; i.v.): 10 days
- Duration of BTK degradation in mouse ≥90% (BTK C481S; s.c.): 10 days

SMILES: CCCCCCCCCCC[C@](CCCCCCCCCCC(=O)O)(C(=O)O)C(=O)NCCOCCOCCOCCOCCOCCOCCOCCOCCOCCOCCOCCOCCC(=O)NCC(=O)OC(C)(C)c1ccc(C(=O)Nc2cc(F)cc(-c3ncnc4[nH]c(-c5ccc(CN6CCC(OC7CCN(CCn8cccc(CN9CCC(=O)NC9=O)c8=O)CC7)CC6)cc5)cc34)c2C)c(F)c1 (single isomer, unassigned) [Compound B3]
- AUC [1, 9]: 3850 µM·h
- Cmax [1, 9]: 68 µM
- Duration of BTK degradation in mouse ≥90% (BTK; 40 umol/kg): 14 days
- Dosing to achieve sustained ~90% regression (TMD8 tumors): 20 umol/kg q3w

SMILES: CCCCCCCCCCCN(C(=O)CCCCCCCCCC(=O)O)[C@@H](CCC(=O)NCCOCCOCCOCCOCCOCCOCCOCCOCCOCCOCCOCCOCCC(=O)NCC(=O)OC(C)(C)c1ccc(C(=O)Nc2cc(F)cc(-c3ncnc4[nH]c(-c5ccc(CCN6CCC7(CC6)CCN(C(=O)c6ccc(OC)c(N8CCC(=O)NC8=O)c6)CC7)cc5)cc34)c2C)c(F)c1)C(=O)O [Example A2, (S)-50-Carboxy-2-(4-((3-(6-(4-(2-(9-(3-(2,4-dioxotetrahydropyrimidin-1(2H)-yl)-4-methoxybenzoyl)-3,9-diazaspiro[5.5]undecan-3-yl)ethyl)phenyl)-7H-pyrrolo[2,3-d]pyrimidin-4-yl)-5-fluoro-2-methylphenyl)carbamoyl)-3-fluorophenyl)-2-methyl-4,7,47,52-tetraoxo-51-undecyl-3,10,13,16,19,22,25,28,31,34,37,40,43-tridecaoxa-6,46,51-triazadohexacontan-62-oic acid]
- % Release of degrader after 24 h PBS ([3]; 24 h): 0.8%
- Plasma stability (h) PBS ([3]; incubation to 24 h): >48 h
- % Release of degrader after 24 h mouse ([4]; 24 h): 3.4%
- Plasma stability (h) mouse ([4]; incubation to 24 h): 12.3 h
- % Release of degrader after 24 h rat ([5]; 24 h): 8.9%
- Plasma stability (h) rat ([5]; incubation to 24 h): 18.1 h
- Plasma stability (h) dog [6]: >48 h
- % Release of degrader after 24 h dog ([6]; 24 h): 7.3%
- Payload C0-uM dog [7]: 0.2 µM
- C0 ([8]; read-out: FAC C0-uM cyno): 56.6 µM
- AUC ([8]; male, cynomolgus monkey, whole blood, iv, read-out: FAC AUC-uM.h cyno): 590 µM·h
